Laboratory results from patent US20230331820A1 (GlaxoSmithKline, published 2023).
Like-named read-outs stand apart in the source and are kept apart here.

Key:
[1] = biological target: T1, gI WT: HSV2 gI wildtype ectodomain (HSV2, UniProt P06764 21-256); test: ELISA, supernatant
[2] = biological target: T1, gI WT: HSV2 gI wildtype ectodomain; test: ELISA, supernatant; remark: listed apart in the source

| Binder | binding result [1] | binding result [2] |
| --- | --- | --- |
| mAb clone 18 (antibody, V domains shown, also called mAb 18; mAb18) VH: QVQLQQSGAELVRPGTSVKMSCKAAGYTFTNYWIGWVKQRPGHGLEWIGDIYPGGGYTKYNEKFKGKATLTADTSSSTAYMQLSSLTSEDSAIYYCARDGYSPYWGQGTSLTVSS VL: TIVMTQTPKFLLVSAGDRVTITCKASQSVSNAVAWYQQKPGQSPKLLIYSASNRYTGVPDRFTGSGYGTDFTFTISSVQAEDLAVYFCQQDYTSPFTFGSGTKLEIK | no binding | – |
| mAb clone 5 (antibody, V domains shown, also called mAb 5; GEGI/5IIa) VH: EVKLVESGGGLVQPGGSLRLSCATSGFTFSDFYMEWVRQPPGKRLEWIAASRNKANDYTTEYSASVKGRFIVSRDTSQSILYLQMNALRAEDTAIYYCARDFLPYYGSPWFAYWGQGTLVTVSA VL: DIVMTQSPATLSVTPGDRVSLSCRASQSISDYLHWYQQKSHESPRLLIKYASQSISGIPSRFSGSGSGSDFTLSINSVEPEDVGVYYCQNGHSFPYTFGGGTKLEIK | – | no binding |
